The data set can be described thus: self-splicing fitness, log relative to wild type (ln ratio); higher = more splicing; Tetrahymena group I intron in knt gene, E. coli kanamycin selection, DiMSum; sequences stand for … in CUCUCU…GGAGGGAAAAGUUAUCAGGCAUGCACCUGGUAGCUAGUCUUUAAACCAAUAGAUUGCAUCGGUUUAAAAGGCAAGACCGUCAAAUUGCGGGAAAGGGGUCAACAGCCGUUCAGUACCAAGUCUCAGGGGAAACUUUGAGAUGGCCUUGCAAAGGGUAUGGUAAUAAGCUGACGGACAUGGUCCUAACCACGCAGCCAAGUCCUAAGUCAACAGAUCUUCUGUUGAUAUGGAUGCAGUUCACAGACUAAAUGUCGGUCGGGGAAGAUGUAUUCUUCUCAUAAGAUAUAGUCGGACCUCUCCUUAAUGGGAGCUAGCGGAUGAAGUGAUGCAACACUGGAGCCGCUGGGAACUAAUUUGUAUGCGAAAGUAUAUUGAUUAGUUUUGGAGUACUCGUGGUCG
The gist of the method: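 A randomised library covering all eight P1ex-region intron nucleotides was built with the intron in the knt kanamycin-resistance gene on pET-22b(+) and held in E. coli BL21(DE3). Cells were grown overnight at 37°C or 30°C on LB agar, with or without 25 μg/mL kanamycin, plus 100 μg/mL carbenicillin, 50 μM IPTG and 0.2% rhamnose, and pooled colonies were amplicon-sequenced on an Illumina HiSeq 2500. DiMSum fitness is the error-weighted combination of wild-type-normalised replicate fold changes, kanamycin versus none.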

± gives the uncertainty stated by the source.

As to CUGUAGCAAUAUUACGGGAG, the “self-splicing fitness (ln)” value (30 °C) was -4.83 ± 0.29 and the “self-splicing fitness (ln)” value (37 °C) was -1.67 ± 0.13.

In the case of CUGUAGCAAUAUUACGGGGC, the “self-splicing fitness (ln)” value is -4.95 ± 0.36 (30 °C) and -2.14 ± 0.19 (37 °C).

Consider CUGUAGCAAUAUUACGGUAA, for which the “self-splicing fitness (ln)” value runs as follows: (30 °C) -3.63 ± 0.24; (37 °C) -2.3 ± 0.26.

Regarding CUGUAGCAAUAUUACGGUCA, the “self-splicing fitness (ln)” value by setting is: (30 °C) -2.29 ± 0.25; (37 °C) -2.63 ± 0.34.

For the sequence CUGUAGCAAUAUUACGUAAC, the “self-splicing fitness (ln)” value runs as follows: (30 °C) -3.09 ± 0.46; (37 °C) -2.24 ± 0.5.

In the case of CUGUAGCAAUAUUACGUGCC, the “self-splicing fitness (ln)” value runs as follows: (30 °C) -3.49 ± 0.35; (37 °C) -2.21 ± 0.24.

Consider CUGUAGCAAUAUUACGUGUA, for which the “self-splicing fitness (ln)” value is, setting by setting: (30 °C) -4.12 ± 0.3; (37 °C) -2.05 ± 0.21.

As for CUGUAGCAAUAUUACGUUUU, the “self-splicing fitness (ln)” value reads like this: (30 °C) -4.23 ± 0.35; (37 °C) -2.23 ± 0.19.

With CUUAAGCAAUAUUACGAGAA, the “self-splicing fitness (ln)” value by setting is: (30 °C) -2.01 ± 0.34; (37 °C) -2.91 ± 0.47.

As for CUUAAGCAAUAUUACGAUAU, the “self-splicing fitness (ln)” value is -3.29 ± 0.2 (30 °C) and -1.4 ± 0.17 (37 °C).

For the sequence CUUAAGCAAUAUUACGCAGG, the “self-splicing fitness (ln)” value runs as follows: (30 °C) -3.05 ± 0.21; (37 °C) -2.96 ± 0.32.

Take CUUAAGCAAUAUUACGCAGU: the “self-splicing fitness (ln)” value (30 °C) was -3.71 ± 0.46 and the “self-splicing fitness (ln)” value (37 °C) was -2.56 ± 0.28.

Consider CUUAAGCAAUAUUACGCCCG, for which the “self-splicing fitness (ln)” value is -1.46 ± 0.28 (30 °C) and 0.386 ± 0.3 (37 °C).

Take CUUAAGCAAUAUUACGGCAU: the “self-splicing fitness (ln)” value was -3.68 ± 0.23 (30 °C) and -3.67 ± 0.34 (37 °C).

In the case of CUUAAGCAAUAUUACGGGAC, the “self-splicing fitness (ln)” value is -3.6 ± 0.28 (30 °C) and -1.26 ± 0.13 (37 °C).

For the sequence CUUAAGCAAUAUUACGGGGC, the “self-splicing fitness (ln)” value is -3.68 ± 0.2 (30 °C) and -2.63 ± 0.21 (37 °C).

As for CUUAAGCAAUAUUACGGUCG, the “self-splicing fitness (ln)” value reads like this: (30 °C) 0.0331 ± 0.082; (37 °C) 0.0238 ± 0.093.

Take CUUAAGCAAUAUUACGUCAA: the “self-splicing fitness (ln)” value runs as follows: (30 °C) -3.38 ± 0.35; (37 °C) -2.33 ± 0.21.

Take CUUAAGCAAUAUUACGUCCA: the “self-splicing fitness (ln)” value (30 °C) was -2.93 ± 0.48 and the “self-splicing fitness (ln)” value (37 °C) is -2.34 ± 0.46.

Consider CUUAAGCAAUAUUACGUGCU, for which the “self-splicing fitness (ln)” value by setting is: (30 °C) -2.16 ± 0.24; (37 °C) -2.1 ± 0.18.

Turning to CUUAAGCAAUAUUACGUGGC, the “self-splicing fitness (ln)” value (37 °C) stood at 0.00177 ± 0.26.

Regarding CUUAAGCAAUAUUACGUUAG, the “self-splicing fitness (ln)” value is -3.59 ± 0.23 (30 °C) and -1.59 ± 0.17 (37 °C).

In the case of CUUCAGCAAUAUUACGAGGG, the “self-splicing fitness (ln)” value is -3.48 ± 0.22 (30 °C) and -2.31 ± 0.22 (37 °C).

On to CUUCAGCAAUAUUACGAUGG, for which the “self-splicing fitness (ln)” value is, setting by setting: (30 °C) -2.3 ± 0.11; (37 °C) -1.38 ± 0.15.

On to CUUCAGCAAUAUUACGCAUC, for which the “self-splicing fitness (ln)” value runs as follows: (30 °C) -2.85 ± 0.22; (37 °C) -2.68 ± 0.22.

Turning to CUUCAGCAAUAUUACGCCAU, the “self-splicing fitness (ln)” value reads like this: (30 °C) -4.2 ± 0.3; (37 °C) -2.02 ± 0.23.

With CUUCAGCAAUAUUACGCCGG, for the setting “30 °C”, the “self-splicing fitness (ln)” value is -2.73 ± 0.34.

On to CUUCAGCAAUAUUACGCGCA, for which the “self-splicing fitness (ln)” value is -1.93 ± 0.29 (30 °C) and 0.383 ± 0.28 (37 °C).

As for CUUCAGCAAUAUUACGCUCU, the “self-splicing fitness (ln)” value (30 °C) was -3.79 ± 0.39.

Consider CUUCAGCAAUAUUACGGACA, for which the “self-splicing fitness (ln)” value is -3.26 ± 0.35 (30 °C) and -2.3 ± 0.26 (37 °C).

Regarding CUUCAGCAAUAUUACGGAUC, the “self-splicing fitness (ln)” value (30 °C) is -1.38 ± 0.08 and the “self-splicing fitness (ln)” value (37 °C) is -0.259 ± 0.1.

For CUUCAGCAAUAUUACGGGAA, the “self-splicing fitness (ln)” value (30 °C) is -1.22 ± 0.097 and the “self-splicing fitness (ln)” value (37 °C) is -2.08 ± 0.1.

Take CUUCAGCAAUAUUACGGGAC: the “self-splicing fitness (ln)” value is -2.8 ± 0.11 (30 °C) and -0.836 ± 0.12 (37 °C).

Take CUUCAGCAAUAUUACGGGGU: the “self-splicing fitness (ln)” value (30 °C) is -3.95 ± 0.2 and the “self-splicing fitness (ln)” value (37 °C) was -2.45 ± 0.25.

As to CUUCAGCAAUAUUACGGGUC, the “self-splicing fitness (ln)” value was -3.39 ± 0.28 (30 °C) and -0.947 ± 0.25 (37 °C).

For CUUCAGCAAUAUUACGGUGC, the “self-splicing fitness (ln)” value (30 °C) is -3.36 ± 0.21 and the “self-splicing fitness (ln)” value (37 °C) is -1.56 ± 0.31.

As to CUUCAGCAAUAUUACGUCAC, the “self-splicing fitness (ln)” value (37 °C) is -1.41 ± 0.19.

With CUUCAGCAAUAUUACGUCCG, the “self-splicing fitness (ln)” value is, setting by setting: (30 °C) -0.583 ± 0.056; (37 °C) -0.437 ± 0.09.

As for CUUCAGCAAUAUUACGUCGG, the “self-splicing fitness (ln)” value (30 °C) was -1.85 ± 0.15 and the “self-splicing fitness (ln)” value (37 °C) was -1.79 ± 0.24.

In the case of CUUCAGCAAUAUUACGUCUG, the “self-splicing fitness (ln)” value runs as follows: (30 °C) -2.73 ± 0.12; (37 °C) -1.48 ± 0.16.

Consider CUUCAGCAAUAUUACGUUAG, for which the “self-splicing fitness (ln)” value was -1.66 ± 0.071 (30 °C) and -1.25 ± 0.094 (37 °C).

With CUUCAGCAAUAUUACGUUCA, the “self-splicing fitness (ln)” value is, setting by setting: (30 °C) -3.63 ± 0.26; (37 °C) -2.04 ± 0.23.

In the case of CUUGAGCAAUAUUACGAAAA, the “self-splicing fitness (ln)” value (30 °C) is -2.53 ± 0.38 and the “self-splicing fitness (ln)” value (37 °C) is -1.92 ± 0.38.

In the case of CUUGAGCAAUAUUACGAAAC, the “self-splicing fitness (ln)” value was -4 ± 0.33 (30 °C) and -2.78 ± 0.36 (37 °C).

Take CUUGAGCAAUAUUACGAAUC: the “self-splicing fitness (ln)” value runs as follows: (30 °C) -4.03 ± 0.31; (37 °C) -1.86 ± 0.26.

In the case of CUUGAGCAAUAUUACGACGC, the “self-splicing fitness (ln)” value runs as follows: (30 °C) -2.13 ± 0.39; (37 °C) -1.9 ± 0.46.

On to CUUGAGCAAUAUUACGACUG, for which the “self-splicing fitness (ln)” value (30 °C) is -0.383 ± 0.084 and the “self-splicing fitness (ln)” value (37 °C) came to 0.0311 ± 0.12.

On to CUUGAGCAAUAUUACGAGUG, for which the “self-splicing fitness (ln)” value was -1.72 ± 0.081 (30 °C) and -0.765 ± 0.093 (37 °C).

Turning to CUUGAGCAAUAUUACGCCGG, the “self-splicing fitness (ln)” value by setting is: (30 °C) -4.04 ± 0.46; (37 °C) -1.65 ± 0.47.

CUUGAGCAAUAUUACGCGAU: the “self-splicing fitness (ln)” value (37 °C) was 1.12 ± 0.27.

In the case of CUUGAGCAAUAUUACGCGUU, the “self-splicing fitness (ln)” value was -4.07 ± 0.39 (30 °C) and -2.14 ± 0.23 (37 °C).

On to CUUGAGCAAUAUUACGGACA, for which, for the setting “30 °C”, the “self-splicing fitness (ln)” value is -2.41 ± 0.37.

Turning to CUUGAGCAAUAUUACGGAUA, the “self-splicing fitness (ln)” value (30 °C) is -3.62 ± 0.4 and the “self-splicing fitness (ln)” value (37 °C) is -1.76 ± 0.4.

CUUGAGCAAUAUUACGGCUU: the “self-splicing fitness (ln)” value (30 °C) is -3.95 ± 0.22 and the “self-splicing fitness (ln)” value (37 °C) was -2.41 ± 0.24.

For CUUGAGCAAUAUUACGGUCG, the “self-splicing fitness (ln)” value runs as follows: (30 °C) -1.67 ± 0.15; (37 °C) -2.3 ± 0.3.

CUUGAGCAAUAUUACGGUGG: the “self-splicing fitness (ln)” value (30 °C) is -2.55 ± 0.13 and the “self-splicing fitness (ln)” value (37 °C) is -1.52 ± 0.12.

For CUUGAGCAAUAUUACGUCCA, the “self-splicing fitness (ln)” value was -3.91 ± 0.39 (30 °C) and -2.55 ± 0.41 (37 °C).

With CUUGAGCAAUAUUACGUCGG, the “self-splicing fitness (ln)” value reads like this: (30 °C) -2.62 ± 0.11; (37 °C) -1.04 ± 0.12.

As to CUUGAGCAAUAUUACGUGCG, the “self-splicing fitness (ln)” value runs as follows: (30 °C) -2.22 ± 0.13; (37 °C) -0.809 ± 0.14.

For CUUGAGCAAUAUUACGUGGC, the “self-splicing fitness (ln)” value (37 °C) is -2.41 ± 0.31.

For CUUGAGCAAUAUUACGUUCU, the “self-splicing fitness (ln)” value by setting is: (30 °C) -2.75 ± 0.41; (37 °C) -3.71 ± 0.42.

Regarding CUUGAGCAAUAUUACGUUUU, the “self-splicing fitness (ln)” value reads like this: (30 °C) -3.92 ± 0.28; (37 °C) -3.44 ± 0.3.

Values taken from the supplement of paper PMC7877785.
